Among the data in patent publication US20230190801A1 are g-NK cell-mediated cytotoxicity against elotuzumab-treated MM cell lines, correlation with SLAMF7 expression values, retold here.

The target of this assay is SLAMF7 (human) (UniProt Q9NQ25). Put plainly: cell-based or functional assay.

B1: elotuzumab (antibody, INN chains, looked up, V domains shown)
VH: EVQLVESGGGLVQPGGSLRLSCAASGFDFSRYWMSWVRQAPGKGLEWIGEINPDSSTINYAPSLKDKFIISRDNAKNSLYLQMNSLRAEDTAVYYCARPDGNYWYFDVWGQGTLVTVSS
VL: DIQMTQSPSSLSASVGDRVTITCKASQDVGIAVAWYQQKPGKVPKLLIYWASTRHTGVPDRFSGSGSGTDFTLTISSLQPEDVATYYCQQYSSYPYTFGQGTKVEIKR
Molecule B1 displayed a g-NK cell-mediated cytotoxicity against elotuzumab-treated MM cell lines, correlation with SLAMF7 expression of 0.96 R^2.
